# Measurements from article PMC10786891, “Massively parallel profiling of RNA-targeting CRISPR-Cas13d”.
# T1: EsCas13d, nuclease-dead (Eubacterium siraeum, UniProt B0MS50, R295A;H300A;R849A;H854A)
# T1 sequence: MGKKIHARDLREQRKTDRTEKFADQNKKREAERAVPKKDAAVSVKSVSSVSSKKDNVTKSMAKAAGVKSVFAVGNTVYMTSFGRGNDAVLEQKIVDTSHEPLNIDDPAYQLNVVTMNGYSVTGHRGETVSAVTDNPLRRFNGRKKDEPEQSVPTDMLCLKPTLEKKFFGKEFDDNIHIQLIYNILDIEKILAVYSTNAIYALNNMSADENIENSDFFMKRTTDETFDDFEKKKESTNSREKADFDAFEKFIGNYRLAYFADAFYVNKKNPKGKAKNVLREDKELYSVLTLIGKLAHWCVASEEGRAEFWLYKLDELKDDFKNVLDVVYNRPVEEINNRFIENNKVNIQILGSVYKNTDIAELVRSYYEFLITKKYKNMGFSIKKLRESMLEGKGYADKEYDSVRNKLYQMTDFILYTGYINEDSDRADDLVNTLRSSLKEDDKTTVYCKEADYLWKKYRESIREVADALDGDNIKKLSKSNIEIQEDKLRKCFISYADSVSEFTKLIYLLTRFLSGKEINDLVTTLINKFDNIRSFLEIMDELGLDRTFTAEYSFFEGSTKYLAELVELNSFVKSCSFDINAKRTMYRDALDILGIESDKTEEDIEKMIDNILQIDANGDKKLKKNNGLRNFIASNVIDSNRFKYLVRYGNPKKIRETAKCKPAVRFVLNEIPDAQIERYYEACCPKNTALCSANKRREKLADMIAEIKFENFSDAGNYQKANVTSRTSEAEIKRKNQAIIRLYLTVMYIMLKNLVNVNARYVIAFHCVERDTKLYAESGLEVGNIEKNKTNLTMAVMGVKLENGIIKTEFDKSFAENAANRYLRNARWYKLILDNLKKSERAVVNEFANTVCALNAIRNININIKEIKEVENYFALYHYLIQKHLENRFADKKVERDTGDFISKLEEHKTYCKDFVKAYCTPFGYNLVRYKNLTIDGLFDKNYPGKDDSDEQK
# Target: T1, EsCas13d, nuclease-dead
# Assay: crRNA (strand 1, pre-loaded); Mg2+; 40 mM Tris-HCl pH 7.5, 150 mM NaCl, 6 mM MgCl2, 1 mM DTT, 0.1% Tween-20, 0.2 mg/ml BSA; 25 C; 10 min per concentration, then washed
# Conditions: tags: His6-TwinStrep-SUMO cleaved; N-terminal SNAP kept (SNAP-Surface 488); label: 3' end held by stalled T7 RNA polymerase
row,Binder,Kd [nM]
1,target 1 insU 3' of 4 (mixed) RNA 1: CACCCGUGCAAAAAUGCAGGGGUCUAAAACUGAGCGGAUAACCUCUCUAUGG RNA 2: GGGAAUGGAUCCACAUCUACGAAUUCGUACCAUAGAGAGGUUAUCCGCUUCACCGAGAUCGGAAGAGCACACGU,8.7 ± 0.7
2,"target 1 insU 3' of 9,insU 3' of 1 (mixed) RNA 1: CACCCGUGCAAAAAUGCAGGGGUCUAAAACUGAGCGGAUAACCUCUCUAUGG RNA 2: GGGAAUGGAUCCACAUCUACGAAUUCGUACCAUAGAGAGGUUAUUCCGCUCAUCCGAGAUCGGAAGAGCACACGU",32 ± 7
3,"target 1 U10G,G15A (mixed) RNA 1: CACCCGUGCAAAAAUGCAGGGGUCUAAAACUGAGCGGAUAACCUCUCUAUGG RNA 2: GGGAAUGGAUCCACAUCUACGAAUUCGUACCAUAGAAAGGUGAUCCGCUCACCGAGAUCGGAAGAGCACACGU",53 ± 15
4,"target 1 C2A,U11A (mixed) RNA 1: CACCCGUGCAAAAAUGCAGGGGUCUAAAACUGAGCGGAUAACCUCUCUAUGG RNA 2: GGGAAUGGAUCCACAUCUACGAAUUCGUACCAUAGAGAGGAUAUCCGCUAACCGAGAUCGGAAGAGCACACGU",21.6 ± 1.4
5,"target 1 insA 3' of 22,insA 3' of 4 (mixed) RNA 1: CACCCGUGCAAAAAUGCAGGGGUCUAAAACUGAGCGGAUAACCUCUCUAUGG RNA 2: GGGAAUGGAUCCACAUCUACGAAUUCGUACACAUAGAGAGGUUAUCCGCAUCACCGAGAUCGGAAGAGCACACGU",7.8 ± 1.1
6,"target 1 insC 3' of 20,insG 3' of 7 (mixed) RNA 1: CACCCGUGCAAAAAUGCAGGGGUCUAAAACUGAGCGGAUAACCUCUCUAUGG RNA 2: GGGAAUGGAUCCACAUCUACGAAUUCGUACCACUAGAGAGGUUAUCGCGCUCACCGAGAUCGGAAGAGCACACGU",8.8 ± 0.4
7,"target 1 U8A,A16G (mixed) RNA 1: CACCCGUGCAAAAAUGCAGGGGUCUAAAACUGAGCGGAUAACCUCUCUAUGG RNA 2: GGGAAUGGAUCCACAUCUACGAAUUCGUACCAUAGGGAGGUUAACCGCUCACCGAGAUCGGAAGAGCACACGU",64 ± 6
8,"target 1 insA 3' of 15,insA 3' of 7 (mixed) RNA 1: CACCCGUGCAAAAAUGCAGGGGUCUAAAACUGAGCGGAUAACCUCUCUAUGG RNA 2: GGGAAUGGAUCCACAUCUACGAAUUCGUACCAUAGAGAAGGUUAUCACGCUCACCGAGAUCGGAAGAGCACACGU",4.65 ± 0.17
9,"target 1 insA 3' of 10,insC 3' of 3 (mixed) RNA 1: CACCCGUGCAAAAAUGCAGGGGUCUAAAACUGAGCGGAUAACCUCUCUAUGG RNA 2: GGGAAUGGAUCCACAUCUACGAAUUCGUACCAUAGAGAGGUUAAUCCGCUCCACCGAGAUCGGAAGAGCACACGU",10.3 ± 0.6
10,"target 1 insC 3' of 22,insG 3' of 8 (mixed) RNA 1: CACCCGUGCAAAAAUGCAGGGGUCUAAAACUGAGCGGAUAACCUCUCUAUGG RNA 2: GGGAAUGGAUCCACAUCUACGAAUUCGUACCCAUAGAGAGGUUAUGCCGCUCACCGAGAUCGGAAGAGCACACGU",33 ± 4
11,"target 1 A1U,A9C (mixed) RNA 1: CACCCGUGCAAAAAUGCAGGGGUCUAAAACUGAGCGGAUAACCUCUCUAUGG RNA 2: GGGAAUGGAUCCACAUCUACGAAUUCGUACCAUAGAGAGGUUCUCCGCUCUCCGAGAUCGGAAGAGCACACGU",15.4 ± 1.7
12,"target 1 insA 3' of 11,insA 3' of 5 (mixed) RNA 1: CACCCGUGCAAAAAUGCAGGGGUCUAAAACUGAGCGGAUAACCUCUCUAUGG RNA 2: GGGAAUGGAUCCACAUCUACGAAUUCGUACCAUAGAGAGGUAUAUCCGACUCACCGAGAUCGGAAGAGCACACGU",8.7 ± 0.4
13,"target 1 C6A,G13U (mixed) RNA 1: CACCCGUGCAAAAAUGCAGGGGUCUAAAACUGAGCGGAUAACCUCUCUAUGG RNA 2: GGGAAUGGAUCCACAUCUACGAAUUCGUACCAUAGAGAUGUUAUCAGCUCACCGAGAUCGGAAGAGCACACGU",34 ± 4
14,"target 1 insG 3' of 8,insU 3' of 7 (mixed) RNA 1: CACCCGUGCAAAAAUGCAGGGGUCUAAAACUGAGCGGAUAACCUCUCUAUGG RNA 2: GGGAAUGGAUCCACAUCUACGAAUUCGUACCAUAGAGAGGUUAUGCUCGCUCACCGAGAUCGGAAGAGCACACGU",14.1 ± 0.5
15,"target 1 C7G,C21U (mixed) RNA 1: CACCCGUGCAAAAAUGCAGGGGUCUAAAACUGAGCGGAUAACCUCUCUAUGG RNA 2: GGGAAUGGAUCCACAUCUACGAAUUCGUACUAUAGAGAGGUUAUGCGCUCACCGAGAUCGGAAGAGCACACGU",6.7 ± 0.31
16,"target 1 insA 3' of 17,insU 3' of 16 (mixed) RNA 1: CACCCGUGCAAAAAUGCAGGGGUCUAAAACUGAGCGGAUAACCUCUCUAUGG RNA 2: GGGAAUGGAUCCACAUCUACGAAUUCGUACCAUAGAAUGAGGUUAUCCGCUCACCGAGAUCGGAAGAGCACACGU",38 ± 8
17,"target 1 U8G,C21A (mixed) RNA 1: CACCCGUGCAAAAAUGCAGGGGUCUAAAACUGAGCGGAUAACCUCUCUAUGG RNA 2: GGGAAUGGAUCCACAUCUACGAAUUCGUACAAUAGAGAGGUUAGCCGCUCACCGAGAUCGGAAGAGCACACGU",54 ± 11
18,"target 1 G5U,C7A (mixed) RNA 1: CACCCGUGCAAAAAUGCAGGGGUCUAAAACUGAGCGGAUAACCUCUCUAUGG RNA 2: GGGAAUGGAUCCACAUCUACGAAUUCGUACCAUAGAGAGGUUAUACUCUCACCGAGAUCGGAAGAGCACACGU",56 ± 9
19,"target 1 insA 3' of 21,insA 3' of 13 (mixed) RNA 1: CACCCGUGCAAAAAUGCAGGGGUCUAAAACUGAGCGGAUAACCUCUCUAUGG RNA 2: GGGAAUGGAUCCACAUCUACGAAUUCGUACCAAUAGAGAGAGUUAUCCGCUCACCGAGAUCGGAAGAGCACACGU",11.7 ± 0.7
20,"target 1 insA 3' of 22,insG 3' of 11 (mixed) RNA 1: CACCCGUGCAAAAAUGCAGGGGUCUAAAACUGAGCGGAUAACCUCUCUAUGG RNA 2: GGGAAUGGAUCCACAUCUACGAAUUCGUACACAUAGAGAGGUGUAUCCGCUCACCGAGAUCGGAAGAGCACACGU",42 ± 8
21,"target 1 G13C,G15C (mixed) RNA 1: CACCCGUGCAAAAAUGCAGGGGUCUAAAACUGAGCGGAUAACCUCUCUAUGG RNA 2: GGGAAUGGAUCCACAUCUACGAAUUCGUACCAUAGACACGUUAUCCGCUCACCGAGAUCGGAAGAGCACACGU",52 ± 22
22,"target 1 insU 3' of 15,insU 3' of 15 (mixed) RNA 1: CACCCGUGCAAAAAUGCAGGGGUCUAAAACUGAGCGGAUAACCUCUCUAUGG RNA 2: GGGAAUGGAUCCACAUCUACGAAUUCGUACCAUAGAGUUAGGUUAUCCGCUCACCGAGAUCGGAAGAGCACACGU",17.6 ± 1.2
23,"target 1 A9U,G15A (mixed) RNA 1: CACCCGUGCAAAAAUGCAGGGGUCUAAAACUGAGCGGAUAACCUCUCUAUGG RNA 2: GGGAAUGGAUCCACAUCUACGAAUUCGUACCAUAGAAAGGUUUUCCGCUCACCGAGAUCGGAAGAGCACACGU",19.1 ± 1.4
24,"target 1 insG 3' of 14,insU 3' of 13 (mixed) RNA 1: CACCCGUGCAAAAAUGCAGGGGUCUAAAACUGAGCGGAUAACCUCUCUAUGG RNA 2: GGGAAUGGAUCCACAUCUACGAAUUCGUACCAUAGAGAGGUGUUAUCCGCUCACCGAGAUCGGAAGAGCACACGU",22.8 ± 2.7
25,"target 1 insU 3' of 21,insC 3' of 11 (mixed) RNA 1: CACCCGUGCAAAAAUGCAGGGGUCUAAAACUGAGCGGAUAACCUCUCUAUGG RNA 2: GGGAAUGGAUCCACAUCUACGAAUUCGUACCUAUAGAGAGGUCUAUCCGCUCACCGAGAUCGGAAGAGCACACGU",81 ± 21
26,"target 1 insA 3' of 7,insG 3' of 4 (mixed) RNA 1: CACCCGUGCAAAAAUGCAGGGGUCUAAAACUGAGCGGAUAACCUCUCUAUGG RNA 2: GGGAAUGGAUCCACAUCUACGAAUUCGUACCAUAGAGAGGUUAUCACGCGUCACCGAGAUCGGAAGAGCACACGU",5.33 ± 0.17
27,"target 1 insA 3' of 17,insG 3' of 14 (mixed) RNA 1: CACCCGUGCAAAAAUGCAGGGGUCUAAAACUGAGCGGAUAACCUCUCUAUGG RNA 2: GGGAAUGGAUCCACAUCUACGAAUUCGUACCAUAGAAGAGGGUUAUCCGCUCACCGAGAUCGGAAGAGCACACGU",15.5 ± 0.7
28,"target 1 U8C,G12C (mixed) RNA 1: CACCCGUGCAAAAAUGCAGGGGUCUAAAACUGAGCGGAUAACCUCUCUAUGG RNA 2: GGGAAUGGAUCCACAUCUACGAAUUCGUACCAUAGAGAGCUUACCCGCUCACCGAGAUCGGAAGAGCACACGU",18.1 ± 0.6
